The values that follow come from paper PMC4664405, “Mapping Soluble Guanylyl Cyclase and Protein Disulfide Isomerase Regions of Interaction” (PLoS ONE, 2015).

Sequences and labels used below:
T1: soluble guanylyl cyclase (sGC) α subunit, of the purified reduced sGC (human, UniProt Q02108 1-690)
T1 construct: soluble guanylyl cyclase α subunit, human GCYA3; called full-length reduced sGC in the discussion; cross-linked lysines K5, K606, K672, K673, K685; Bought as the α/β heterodimer and reduced before incubation with PDI; also called GCYA3; source: bought: Axxora
T1 sequence (looked up): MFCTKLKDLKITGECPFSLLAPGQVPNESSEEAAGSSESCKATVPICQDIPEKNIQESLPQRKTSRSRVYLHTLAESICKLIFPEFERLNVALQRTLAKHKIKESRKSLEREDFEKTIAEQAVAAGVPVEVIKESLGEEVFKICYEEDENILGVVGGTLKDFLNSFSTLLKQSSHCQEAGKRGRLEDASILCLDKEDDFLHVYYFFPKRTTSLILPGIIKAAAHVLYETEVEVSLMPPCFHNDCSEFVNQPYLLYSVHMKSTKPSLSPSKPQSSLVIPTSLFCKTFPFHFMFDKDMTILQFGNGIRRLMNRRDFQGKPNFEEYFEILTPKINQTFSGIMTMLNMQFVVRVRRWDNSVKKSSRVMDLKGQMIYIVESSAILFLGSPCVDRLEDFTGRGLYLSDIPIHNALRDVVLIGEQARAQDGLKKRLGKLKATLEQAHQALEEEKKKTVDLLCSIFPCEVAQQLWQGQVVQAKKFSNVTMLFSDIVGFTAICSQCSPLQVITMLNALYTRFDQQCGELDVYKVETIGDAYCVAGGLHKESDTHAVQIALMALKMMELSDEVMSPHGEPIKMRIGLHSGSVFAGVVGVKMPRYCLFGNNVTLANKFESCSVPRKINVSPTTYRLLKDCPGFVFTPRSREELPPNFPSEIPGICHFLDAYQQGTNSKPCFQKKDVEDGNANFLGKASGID

B1: protein disulfide isomerase (PDI), oxidized, purified (enzyme)
chain: not shown
modifications: oxidized: each active site Cys-x-x-Cys forms a disulfide bond
notes: protein disulfide isomerase, human P4HB; called full-length oxidized PDI in the discussion; cross-linked lysines K370 and K409; also called oxidized PDI; oxPDI; source: PDI in pTRC-HisA, purified as described previously [11]
B2: soluble guanylyl cyclase (sGC) β subunit, of the purified reduced sGC (enzyme, human, UniProt Q02153 1-619, looked up)
chain: MYGFVNHALELLVIRNYGPEVWEDIKKEAQLDEEGQFLVRIIYDDSKTYDLVAAASKVLNLNAGEILQMFGKMFFVFCQESGYDTILRVLGSNVREFLQNLDALHDHLATIYPGMRAPSFRCTDAEKGKGLILHYYSEREGLQDIVIGIIKTVAQQIHGTEIDMKVIQQRNEECDHTQFLIEEKESKEEDFYEDLDRFEENGTQESRISPYTFCKAFPFHIIFDRDLVVTQCGNAIYRVLPQLQPGNCSLLSVFSLVRPHIDISFHGILSHINTVFVLRSKEGLLDVEKLECEDELTGTEISCLRLKGQMIYLPEADSILFLCSPSVMNLDDLTRRGLYLSDIPLHDATRDLVLLGEQFREEYKLTQELEILTDRLQLTLRALEDEKKKTDTLLYSVLPPSVANELRHKRPVPAKRYDNVTILFSGIVGFNAFCSKHASGEGAMKIVNLLNDLYTRFDTLTDSRKNPFVYKVETVGDKYMTVSGLPEPCIHHARSICHLALDMMEIAGQVQVDGESVQITIGIHTGEVVTGVIGQRMPRYCLFGNTVNLTSRTETTGEKGKINVSEYTYRCLMSPENSDPQFHLEHRGPVSMKGKKEPMQVWFLSRKNTGTEETKQDDD
notes: soluble guanylyl cyclase β subunit, human GCYB1; called full-length reduced sGC in the discussion; cross-linked lysines K127, K187, K559, K615; Bought as the α/β heterodimer and reduced before incubation with PDI; also called GCYB1; source: bought: Axxora

In experiment [1] the target is B2. The experiment in a line: cross-linking; reduced sGC and oxidized PDI incubated, 50 molar excess of BS3 for 30 minutes at room temperature (22°C) in the dark, alkylated with 40 mM iodoacetamide, non-reducing 7.5% TGX gel, bands digested with trypsin, RPLC-MS/MS, MassMatrix search. Particulars: both partners purified.
The target in experiment [2] is T1, soluble guanylyl cyclase (sGC) α …. The experiment is described as above. The note with it: both partners purified.

Take B1: the binding result in experiment [1] and in experiment [2] was “binds” in each case.
For the molecule B2, the binding result in experiment [2] is given as “binds”.
